{"source": "patent US5705609A", "about": "“Decorin fragments inhibiting cell regulatory factors” (La Jolla Cancer Research Foundation, priority 1995, dated 1998)", "molecules": {"B1": {"name": "decorin isolated from bovine skin (PGII): decorin isolated from bovine skin (protein, UniProt P21793 31-360, looked up)", "Decorin": "DEASGIGPEEHFPEVPEIEPMGPVCPFRCQCHLRVVQCSDLGLEKVPKDLPPDTALLDLQNNKITEIKDGDFKNLKNLHTLILINNKISKISPGAFAPLVKLERLYLSKNQLKELPEKMPKTLQELRVHENEITKVRKSVFNGLNQMIVVELGTNPLKSSGIENGAFQGMKKLSYIRIADTNITTIPQGLPPSLTELHLDGNKITKVDAASLKGLNNLAKLGLSFNSISAVDNGSLANTPHLRELHLNNNKLVKVPGGLADHKYIQVVYLHNNNISAIGSNDFCPPGYNTKKASYSGVSLFSNPVQYWEIQPSTFRCVYVRAAVQLGNYK"}, "B2": {"name": "DC-13: preparation of recombinant human decorin (protein)", "chain": "DEASGIGPEVPDDRDFEPSLGPVCPFRCQCHLRVVQCSDLGLDKVPKDLPPDTTLLDLQNNKITEIKDGDFKNLKNLHALILVNNKISKVSPGAFTPLVKLERLYLSKNQLKELPEKMPKTLQELRAHENEITKVRKVTFNGLNQMIVIELGTNPLKSSGIENGAFQGMKKLSYIRIADTNITSIPQGLPPSLTELHLDGNKISRVDAASLKGLNNLAKLGLSFNSISAVDNGSLANTPHLRELHLDNNKLTRVPGGLAEHKYIQVVYLHNNNISVVGSSDFCPPGHNTKKASYSGVSLFSNPVQYWEIQPSTFRCVYVRSAIQLGNYK", "modifications": "single glycosaminoglycan chain of a chondroitin sulfate/dermatan sulfate type on serine-4", "notes": "preparation of recombinant human decorin"}, "B3": {"name": "mutated decorin core protein: decorin core protein with serine-4 mutated, lacking glycosaminoglycan (protein)", "chain": "DEATGIGPEVPDDRDFEPSLGPVCPFRCQCHLRVVQCSDLGLDKVPKDLPPDTTLLDLQNNKITEIKDGDFKNLKNLHALILVNNKISKVSPGAFTPLVKLERLYLSKNQLKELPEKMPKTLQELRAHENEITKVRKVTFNGLNQMIVIELGTNPLKSSGIENGAFQGMKKLSYIRIADTNITSIPQGLPPSLTELHLDGNKISRVDAASLKGLNNLAKLGLSFNSISAVDNGSLANTPHLRELHLDNNKLTRVPGGLAEHKYIQVVYLHNNNISVVGSSDFCPPGHNTKKASYSGVSLFSNPVQYWEIQPSTFRCVYVRSAIQLGNYK"}, "B4": {"name": "DC-18V: preparation of recombinant human decorin (protein)", "chain": "DEASGIGPEVPDDRDFEPSLGPVCPFRCQCHLRVVQCSDLGLDKVPKDLPPDTTLLDLQNNKITEIKDGDFKNLKNLHALILVNNKISKVSPGAFTPLVKLERLYLSKNQLKELPEKMPKTLQELRAHENEITKVRKVTFNGLNQMIVIELGTNPLKSSGIENGAFQGMKKLSYIRIADTNITSIPQGLPPSLTELHLDGNKISRVDAASLKGLNNLAKLGLSFNSISAVDNGSLANTPHLRELHLDNNKLTRVPGGLAEHKYIQVVYLHNNNISVVGSSDFCPPGHNTKKASYSGVSLFSNPVQYWEIQPSTFRCVYVRSAIQLGNYK", "modifications": "single glycosaminoglycan chain of a chondroitin sulfate/dermatan sulfate type on serine-4", "notes": "as for B2"}, "B5": {"name": "chondroitinase ABC-digested decorin: decorin core protein prepared by chondroitinase ABC digestion (protein)", "chain": "DEATGIGPEVPDDRDFEPSLGPVCPFRCQCHLRVVQCSDLGLDKVPKDLPPDTTLLDLQNNKITEIKDGDFKNLKNLHALILVNNKISKVSPGAFTPLVKLERLYLSKNQLKELPEKMPKTLQELRAHENEITKVRKVTFNGLNQMIVIELGTNPLKSSGIENGAFQGMKKLSYIRIADTNITSIPQGLPPSLTELHLDGNKISRVDAASLKGLNNLAKLGLSFNSISAVDNGSLANTPHLRELHLDNNKLTRVPGGLAEHKYIQVVYLHNNNISVVGSSDFCPPGHNTKKASYSGVSLFSNPVQYWEIQPSTFRCVYVRSAIQLGNYK"}, "B6": {"name": "Biglycan isolated from bovine articular cartilage: biglycan isolated from bovine articular cartilage (protein)", "chain": "DEEASGAETTSGIPDLDSLPPTYSAMCPFGCHCHLRVVQCSDLGLKAVPKEISPDTTLLDLQNNDISELRKDDFKGLQHLYALVLVNNKISKIHEKAFSPLRKLQKLYISKNHLVEIPPNLPSSLVELRIHDNRIRKVPKGVFSGLRNMNCIEMGGNPLENSGFEPGAFDGLKLNYLRISEAKLTGIPKDLPETLNELHLDHNKIQAIELEDLLRYSKLYRLGLGHNQIRMIENGSLSFLPTLRELHLDNNKLSRVPAGLPDLKLLQVVYLHTNNITKVGVNDFCPVGFGVKRAYYNGISLFNNPVPYWEVQPATFRCVTDRLAIQFGNYKK", "modifications": "intact proteoglycan (carries glycosaminoglycan)"}, "B7": {"name": "chondroitinase ABC-digested biglycan: biglycan core protein prepared by chondroitinase ABC digestion (protein)", "chain": "DEEASGAETTSGIPDLDSLPPTYSAMCPFGCHCHLRVVQCSDLGLKAVPKEISPDTTLLDLQNNDISELRKDDFKGLQHLYALVLVNNKISKIHEKAFSPLRKLQKLYISKNHLVEIPPNLPSSLVELRIHDNRIRKVPKGVFSGLRNMNCIEMGGNPLENSGFEPGAFDGLKLNYLRISEAKLTGIPKDLPETLNELHLDHNKIQAIELEDLLRYSKLYRLGLGHNQIRMIENGSLSFLPTLRELHLDNNKLSRVPAGLPDLKLLQVVYLHTNNITKVGVNDFCPVGFGVKRAYYNGISLFNNPVPYWEVQPATFRCVTDRLAIQFGNYKK", "modifications": "glycosaminoglycan removed with chondroitinase ABC", "notes": "biglycan core protein prepared by chondroitinase ABC digestion"}}, "key": {"TGFβ-1 [1]": {"target": "T1, TGFβ-1 (Homo sapiens, UniProt P01137)", "assay": "affinity chromatography of 125I-TGFβ1 on control gelatin-Sepharose"}, "TGF-β [2]": {"target": "T2, TGF-β (Homo sapiens, UniProt P01137)", "T2 sequence (P01137 279-390 limits assumed)": "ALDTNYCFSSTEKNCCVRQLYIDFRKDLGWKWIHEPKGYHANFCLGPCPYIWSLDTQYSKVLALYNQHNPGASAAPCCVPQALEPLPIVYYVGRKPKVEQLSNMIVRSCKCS", "assay": "Binding of 125I-TGF-β to L-M(tk-) cells", "details": "various concentrations of peptide (FIG. 12)", "procedure": "About 2.5×10^4 HepG2 cells or L-M(tk-) cells were incubated with 250 pM[^125 I]TGF-β in the presence of recombinant human decorin (DC-12), PT-71 (MBP), decorin fragments (PT-72, -73, -84, -85, -86 and -87) or anti-TGF-β antibodies for 2 hours at room temperature. Cells were washed with washing buffer (128 mM NaCl, 5 mM KCl, 5 mM […], 1.2 mM CaCl2, 50 mM HEPES, pH 7.5) four times before determination of bound CPM.\nThe activity of the peptides was evaluated using the L-M(tk-) TGFβ1 binding inhibition assay described in Example VII, except various concentrations of peptide were incubated with the cells and TGFβ1 instead of decorin and recombinant decorin fragments. The negative control was a synthetic peptide corresponding to the first 15 amino acids of decorin, which has the sequence […](SEQ ID NO. 21)."}, "TGFβ-1 [3]": {"target": "T1, TGFβ-1", "assay": "Microtiter binding assay: [125I]-TGFβ-1 binding to decorin-coated wells and competition", "set-up": "contains a major band at 25 kd; This band represents the native TGFβ-1 dimer; purchased Calbiochem, La Jolla, Calif", "details": "for inhibition of [125I]-TGFβ-1 binding to decorin-coated wells by core proteins: core proteins / chondroitinase ABC-treated, 4° C. overnight (FIG. 3B); for inhibition of [125I]-TGFβ-1 binding to decorin-coated wells: intact proteoglycans, 37° C. 4 hours (FIG. 3A); for binding of [125I]-TGFβ-1 to microtiter wells coated with the protein: protein coated on wells", "procedure": "The binding of TGFβ-1 to decorin was also examined in a microtiter binding assay. To perform the assay, the wells of a 96-well microtiter plate were coated overnight with 2μg/ml of recombinant decorin in 0.1M sodium carbonate buffer, pH 9.5. The wells were washed with PBS containing 0.05% Tween (PBS/Tween) and samples containing 5×10^4 cpm of [^125 I]-TGFβ-1 and various concentrations of competitors in PBS/Tween were added to each well. The plates were then incubated at 37° C. for 4 hours (at 4° C. overnight in experiments with chondroitinase ABC-digested proteoglycans), washed with PBS/Tween and the bound radioactivity was solubilized with 1% SDS in 0.2M NaOH. Total binding without competitors was about 4% under the conditions used. Nonspecific binding, determined by adding 100-fold molar excess of unlabeled TGFβ-1 over the labeled TGFβ-1 to the incubation mixture, was about 13% of total binding. This assay was also used to study the ability of other decorin preparations and related proteins to compete with the interaction.\nDecorin isolated from bovine skin and biglycan isolated from bovine articular cartilage (PGI and PGII, obtained from Dr. Lawrence Rosenberg, Monteflore Medical Center, N.Y.; and described in Rosenberg et al., J. Biol. Chem. 250:6304-6313, (1985), incorporated by reference herein), chicken cartilage proteoglycan (provided by Dr. Paul Goetinck, La Jolla Cancer Research Foundation, La Jolla, Calif., and described in Goetinck, P. F., in THE GLYCOCONJUGATES, Vol. III, Horwitz, M. I., Editor, pp. 197-217, Academic Press, NY). For the preparation of core proteins, proteoglycans were digested with chondroitinase ABC (Seikagaku, Tokyo, Japan) by incubating 500 μg of proteoglycan with 0.8 units of chondroitinase ABC in 250 μl of 0.1M Tris/Cl, pH 8.0, 30 mM sodium acetate, 2 mM PMSF, 10 mM N-ethylmalelmide, 10 mM EDTA, and 0.36 mM pepstatin for 1 hour at 37° C. Recombinant decorin and decorin isolated from bovine skin (PGII) inhibited the binding of [^125 I]-TGFβ-1, as expected (FIG. 3A). […] This notion was further supported by competition experiments with the mutated decorin core protein (not shown) and chondroitinase ABC-digested decorin and biglycan (FIG.3B). Each of these proteins was inhibitory, whereas cartilage proteoglycan core protein was not."}, "TGF-β [4]": {"target": "T2, TGF-β", "assay": "Binding of 125I-TGF-β to immobilized decorin with competitors", "details": "400 pM 125I-TGF-β pre-incubated with competitor; overnight 0° C.", "procedure": "Immulon wells were coated with 0.5 μg/ml recombinant decorin at 50 μl/well. The wells were placed in a 37° C. incubator overnight and thereafter washed 3 times with 200 μl PBS (0.15M NaCl ) per well to remove unbound decorin. TGF-β labeled with ^125 I (400 pM, New England Nuclear, Bolton-Hunter Labeled) was pre-incubated with or without competitors in 200 μl PBS/0.05% Tween-20 for 1 hour and 45 minutes at room temperature. Competitors included recombinant human decorin preparations (DC-13 and DC-18v), decorin fragments, and MBP as a negative control.\nFifty μl/well of the pre-incubated ^125 I-TGF-β mixture or control were added and incubated overnight at 0° C. Following the incubation, 50 μl of the free TGF-β supernatants were transferred to labeled tubes. The plate was washed 3 times with 0.05% Tween-20 in PBS (200 μl/well). The wells were then transferred into tubes for counting in a gamma counter.\nFurther binding studies were conducted with soluble N-terminal decorin peptide fragments synthesized and tested for their ability to inhibit TGF-β1 binding to immobilized decorin as described above."}}, "note": "“Also recorded” adds a separate entry of the source.", "data": [{"molecule": "gelatin", "values": [{"measurement": "percent of the radioactivity in the urea-eluted fraction", "setting": "TGFβ-1 [1]", "value": 2, "unit": "%"}]}, {"molecule": "PFRCQCHLRVVQ [nP25 -Q36, 20]", "values": [{"measurement": "inhibition of binding of TGFβ1 to L-M(tk-) cells by synthetic peptides", "setting": "TGF-β [2]", "value": "demonstrated inhibitory activity, albeit to a lesser extent"}]}, {"molecule": "Bovine serum albumin treated with chondroitinase ABC: BSA treated with chondroitinase ABC, control [reference compound]", "values": [{"measurement": "inhibition of [125I]-TGFβ-1 binding to decorin-coated wells by core proteins", "setting": "TGFβ-1 [3]", "value": "did not shown any inhibition"}]}, {"molecule": "Bovine serum albumin: bovine serum albumin control [reference compound]", "values": [{"measurement": "inhibition of [125I]-TGFβ-1 binding to decorin-coated wells", "setting": "TGFβ-1 [3]", "value": "did not shown any inhibition"}]}, {"molecule": "PFRSQSHLRVVQ [P25 -Q36, 18]", "values": [{"measurement": "inhibition of binding of TGFβ1 to L-M(tk-) cells by synthetic peptides", "setting": "TGF-β [2]", "value": "inhibited"}]}, {"molecule": "B1", "values": [{"measurement": "inhibition of [125I]-TGFβ-1 binding to decorin-coated wells", "setting": "TGFβ-1 [3]", "value": "inhibited"}]}, {"molecule": "B2", "values": [{"measurement": "inhibition of 125I-TGF-β binding to immobilized decorin", "setting": "TGF-β [4]", "value": "inhibited"}]}, {"molecule": "B3", "values": [{"measurement": "inhibition of [125I]-TGFβ-1 binding to decorin-coated wells by core proteins", "setting": "TGFβ-1 [3]", "value": "inhibitory"}]}, {"molecule": "B4", "values": [{"measurement": "inhibition of 125I-TGF-β binding to immobilized decorin", "setting": "TGF-β [4]", "value": "inhibited"}]}, {"molecule": "B5", "values": [{"measurement": "inhibition of [125I]-TGFβ-1 binding to decorin-coated wells by core proteins", "setting": "TGFβ-1 [3]", "value": "inhibitory; also recorded: somewhat more active than the intact proteoglycans"}]}, {"molecule": "B6", "values": [{"measurement": "inhibition of [125I]-TGFβ-1 binding to decorin-coated wells", "setting": "TGFβ-1 [3]", "value": "as effective an inhibitor as decorin"}, {"measurement": "binding of [125I]-TGFβ-1 to microtiter wells coated with the protein", "setting": "TGFβ-1 [3]", "value": "bound"}]}, {"molecule": "B7", "values": [{"measurement": "inhibition of [125I]-TGFβ-1 binding to decorin-coated wells by core proteins", "setting": "TGFβ-1 [3]", "value": "inhibitory; also recorded: somewhat more active than the intact proteoglycans"}, {"measurement": "binding of [125I]-TGFβ-1 to microtiter wells coated with the protein", "setting": "TGFβ-1 [3]", "value": "bound"}]}]}
